Assay results: the supplement of paper PMC5998384

Key:
[1] = system: HeLa Kyoto; assay: solubility change mitosis vs G1/S (difference of NP-40 vs SDS log2 ratios) (log2 ratio difference); higher = more soluble in mitosis
[2] = system: HeLa Kyoto; assay: melting temperature (median over replicates), in situ; higher = more thermally stable
[3] = system: HeLa Kyoto; assay: solubility in G1/S (NP-40 vs SDS abundance) (log2 ratio); higher = more soluble; details: cell cycle stage: G1/S
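Throughout, for melting temperature (median over replicates), in situ: HeLa Kyoto cells synchronized by double thymidine or nocodazole block, proteins quantified by TMT10plex mass spectrometry, three independent biological replicates.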
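Throughout, for solubility change mitosis vs G1/S (difference of NP-40 vs SDS log2 ratios): synchronized HeLa Kyoto cells (double thymidine block for G1/S, nocodazole release for mitosis), protein amounts in NP-40 versus SDS lysates quantified by mass spectrometry, three biological replicates.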
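Throughout, for solubility in G1/S (NP-40 vs SDS abundance): HeLa Kyoto cells arrested at G1/S by double thymidine block, proteins quantified by TMT10plex mass spectrometry in mild NP-40 versus SDS extracts, three biological replicates.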

Sequence of UBE2D3 (chain, as listed by the source): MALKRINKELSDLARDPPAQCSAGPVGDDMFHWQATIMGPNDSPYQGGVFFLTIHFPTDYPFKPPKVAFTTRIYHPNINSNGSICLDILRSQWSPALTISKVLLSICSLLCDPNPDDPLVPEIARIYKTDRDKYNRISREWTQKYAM

MNGEEEFFDAVTGFDSDNSSGEFSEANQKVTGMIDLDTSKNNRIGKTGERPSQENGIQKHRTSLPAPMFSRSDFSVWTILKKCVGLELSKITMPIAFNEPLSFLQRITEYMEHVYLIHRASCQPQPLERMQSVAAFAVSAVASQWERTGKPFNPLLGETYELIREDLGFRFISEQVSHHPPISAFHSEGLNHDFLFHGSIYPKLKFWGKSVEAEPRGTITLELLKHNEAYTWTNPTCCVHNVIIGKLWIEQYGTVEILNHRTGHKCVLHFKPCGLFGKELHKVEGHIQDKNKKKLFMIYGKWTECLWGIDPVSYESFKKQERRGDHLRKAKLDEDSGKADSDVADDVPVAQETVQVIPGSKLLWRINTRPPNSAQMYNFTSFTVSLNELETGMEKTLPPTDCRLRPDIRGMENGNMDLASQEKERLEEKQREARRERAKEEAEWQTRWFYPGNNPYTGTPDWLYAGDYFERNFSDCPDIY [OSBPL2]
solubility change mitosis (log2) [1]: -0.108
melting temperature ([2]; cell cycle stage: G1/S): 48.1 °C
melting temperature ([2]; cell cycle stage: mitosis): 48.6 °C
solubility in G1/S (log2) [3]: -0.0421

MRRYLRVVVLCVACGFCSLLYAFSQLAVSLEEGTGGGGGKPQAAVASWLAGGGRGAVRGAGVAGPAAHPGVSDRCKDFSLCYWNPYWMLPSDVCGMNCFWEAAFRYSLKIQPVEKMHLAVVACGERLEETMTMLKSAIIFSIKPLQFHIFAEDQLHHSFKGRLDNWSFLQTFNYTLYPITFPSENAAEWKKLFKPCASQRLFLPLILKEVDSLLYVDTDILFLRPVDDIWSLLKKFNSTQIAAMAPEHEEPRIGWYNRFARHPYYGKTGVNSGVMLMNMTRMRRKYFKNDMTTVRLQWGDILMPLLKKYKLNITWGDQDLLNIVFFHNPESLFVFPCQWNYRPDHCIYGSNCQEAEEGGIFILHGNRGVYHDDKQPAFRAVYEALRNCSFEDDNIRSLLKPLELELQKTVHTYCGKIYKIFIKQLAKSVRDRYARSPKEK [GXYLT1]
solubility change mitosis (log2) [1]: 0.0753
melting temperature ([2]; cell cycle stage: G1/S): 53.9 °C
solubility in G1/S (log2) [3]: 0.171

MIEDTMTLLSLLGRIMRYFLLRPETLFLLCISLALWSYFFHTDEVKTIVKSSRDAVKMVKGKVAEIMQNDRLGGLDVLEAEFSKTWEFKNHNVAVYSIQGRRDHMEDRFEVLTDLANKTHPSIFGIFDGHGGETAAEYVKSRLPEALKQHLQDYEKDKENSVLSYQTILEQQILSIDREMLEKLTVSYDEAGTTCLIALLSDKDLTVANVGDSRGVLCDKDGNAIPLSHDHKPYQLKERKRIKRAGGFISFNGSWRVQGILAMSRSLGDYPLKNLNVVIPDPDILTFDLDKLQPEFMILASDGLWDAFSNEEAVRFIKERLDEPHFGAKSIVLQSFYRGCPDNITVMVVKFRNSSKTEEQ [PPM1L]
solubility change mitosis (log2) [1]: -0.142
melting temperature ([2]; cell cycle stage: mitosis): 53.9 °C
solubility in G1/S (log2) [3]: -0.0862

RAP1GAP
solubility change mitosis (log2) [1]: -0.474
melting temperature ([2]; cell cycle stage: G1/S): 49.2 °C
solubility in G1/S (log2) [3]: 0.239

MAHAGGGSGGSGAGGPAGRGLSGARWGRSGSAGHEKLPVHVEDALTYLDQVKIRFGSDPATYNGFLEIMKEFKSQSIDTPGVIRRVSQLFHEHPDLIVGFNAFLPLGYRIDIPKNGKLNIQSPLTSQENSHNHGDGAEDFKQQVPYKEDKPQVPLESDSVEFNNAISYVNKIKTRFLDHPEIYRSFLEILHTYQKEQLNTRGRPFRGMSEEEVFTEVANLFRGQEDLLSEFGQFLPEAKRSLFTGNGPCEMHSVQKNEHDKTPEHSRKRSRPSLLRPVSAPAKKKMKLRGTKDLSIAAVGKYGTLQEFSFFDKVRRVLKSQEVYENFLRCIALFNQELVSGSELLQLVSPFLGKFPELFAQFKSFLGVKELSFAPPMSDRSGDGISREIDYASCKRIGSSYRALPKTYQQPKCSGRTAICKELDHWTLLQGSWTDDYCMSKFKNTCWIPGYSAGVLNDTWVSFPSWSEDSTFVSSKKTPYEEQLHRCEDERFELDVVLETNLATIRVLESVQKKLSRMAPEDQEKFRLDDSLGGTSEVIQRRAIYRIYGDKAPEIIESLKKNPVTAVPVVLKRLKAKEEEWREAQQGFNKIWREQYEKAYLKSLDHQAVNFKQNDTKALRSKSLLNEIESVYDEHQEQHSEGRSAPSSEPHLIFVYEDRQILEDAAALISYYVKRQPAIQKEDQGTIHQLLHQFVPSLFFSQQLDLGASEESADEDRDSPQGQTTDPSERKKPAPGPHSSPPEEKGAFGDAPATEQPPLPPPAPHKPLDDVYSLFFANNNWYFFLRLHQTLCSRLLKIYRQAQKQLLEYRTEKEREKLLCEGRREKGSDPAMELRLKQPSEVELEEYYPAFLDMVRSLLEGSIDPTQYEDTLREMFTIHAYVGFTMDKLVQNIARQLHHLVSDDVCLKVVELYLNEKKRGAAGGNLSSRCVRAARETSYQWKAERCMADENCFKVMFLQRKGQVIMTIELLDTEEAQTEDPVEVQHLARYVEQYVGTEGASSSPTEGFLLKPVFLQRNLKKFRRRWQSEQARALRGEARSSWKRLVGVESACDVDCRFKLSTHKMVFIVNSEDYMYRRGTLCRAKQVQPLVLLRHHQHFEEWHSRWLEDNVTVEAASLVQDWLMGEEDEDMVPCKTLCETVHVHGLPVTRYRVQYSRRPASP [SIN3B]
solubility change mitosis (log2) [1]: 0.0177
melting temperature ([2]; cell cycle stage: G1/S): 47.9 °C
melting temperature ([2]; cell cycle stage: mitosis): 49.3 °C
solubility in G1/S (log2) [3]: -0.231

MADQRQRSLSTSGESLYHVLGLDKNATSDDIKKSYRKLALKYHPDKNPDNPEAADKFKEINNAHAILTDATKRNIYDKYGSLGLYVAEQFGEENVNTYFVLSSWWAKALFVFCGLLTCCYCCCCLCCCFNCCCGKCKPKAPEGEETEFYVSPEDLEAQLQSDEREATDTPIVIQPASATETTQLTADSHPSYHTDGFN [DNAJC5]
solubility change mitosis (log2) [1]: -0.273
melting temperature ([2]; cell cycle stage: G1/S): 56 °C
melting temperature ([2]; cell cycle stage: mitosis): 53.5 °C
solubility in G1/S (log2) [3]: 0.0289

MATLSFVFLLLGAVSWPPASASGQEFWPGQSAADILSGAASRRRYLLYDVNPPEGFNLRRDVYIRIASLLKTLLKTEEWVLVLPPWGRLYHWQSPDIHQVRIPWSEFFDLPSLNKNIPVIEYEQFIAESGGPFIDQVYVLQSYAEGWKEGTWEEKVDERPCIDQLLYSQDKHEYYRGWFWGYEETRGLNVSCLSVQGSASIVAPLLLRNTSARSVMLDRAENLLHDHYGGKEYWDTRRSMVFARHLREVGDEFRSRHLNSTDDADRIPFQEDWMKMKVKLGSALGGPYLGVHLRRKDFIWGHRQDVPSLEGAVRKIRSLMKTHRLDKVFVATDAVRKEYEELKKLLPEMVRFEPTWEELELYKDGGVAIIDQWICAHARFFIGTSVSTFSFRIHEEREILGLDPKTTYNRFCGDQEKACEQPTHWKITY [POFUT2]
solubility change mitosis (log2) [1]: -0.151
melting temperature ([2]; cell cycle stage: mitosis): 53.8 °C
solubility in G1/S (log2) [3]: 0.154

MGKKHKKHKSDKHLYEEYVEKPLKLVLKVGGNEVTELSTGSSGHDSSLFEDKNDHDKHKDRKRKKRKKGEKQIPGEEKGRKRRRVKEDKKKRDRDRVENEAEKDLQCHAPVRLDLPPEKPLTSSLAKQEEVEQTPLQEALNQLMRQLQRKDPSAFFSFPVTDFIAPGYSMIIKHPMDFSTMKEKIKNNDYQSIEELKDNFKLMCTNAMIYNKPETIYYKAAKKLLHSGMKILSQERIQSLKQSIDFMADLQKTRKQKDGTDTSQSGEDGGCWQREREDSGDAEAHAFKSPSKENKKKDKDMLEDKFKSNNLEREQEQLDRIVKESGGKLTRRLVNSQCEFERRKPDGTTTLGLLHPVDPIVGEPGYCPVRLGMTTGRLQSGVNTLQGFKEDKRNKVTPVLYLNYGPYSSYAPHYDSTFANISKDDSDLIYSTYGEDSDLPSDFSIHEFLATCQDYPYVMADSLLDVLTKGGHSRTLQEMEMSLPEDEGHTRTLDTAKEMEITEVEPPGRLDSSTQDRLIALKAVTNFGVPVEVFDSEEAEIFQKKLDETTRLLRELQEAQNERLSTRPPPNMICLLGPSYREMHLAEQVTNNLKELAQQVTPGDIVSTYGVRKAMGISIPSPVMENNFVDLTEDTEEPKKTDVAECGPGGS [BRD7]
solubility change mitosis (log2) [1]: 0.315
melting temperature ([2]; cell cycle stage: G1/S): 46.7 °C
melting temperature ([2]; cell cycle stage: mitosis): 49.1 °C
solubility in G1/S (log2) [3]: -0.49

MQTSSSRSVHLSEWQKNYFAITSGICTGPKADAYRAQILRIQYAWANSEISQVCATKLFKKYAEKYSAIIDSDNVESGLNNYAENILTLAGSQQTDSDKWQSGLSINNVFKMSSVQKMMQAGKKFKDSLLEPALASVVIHKEATVFDLPKFSVCGSSQESDSLPNSAHDRDRTQDFPESNRLKLLQNAQPPMVTNTARTCPTFSAPVGESATAKFHVTPLFGNVKKENHSSAKENIGLNVFLSNQSCFPAACENPQRKSFYGSGTIDALSNPILNKACSKTEDNGPKEDSSLPTFKTAKEQLWVDQQKKYHQPQRASGSSYGGVKKSLGASRSRGILGKFVPPIPKQDGGEQNGGMQCKPYGAGPTEPAHPVDERLKNLEPKMIELIMNEIMDHGPPVNWEDIAGVEFAKATIKEIVVWPMLRPDIFTGLRGPPKGILLFGPPGTGKTLIGKCIASQSGATFFSISASSLTSKWVGEGEKMVRALFAVARCQQPAVIFIDEIDSLLSQRGDGEHESSRRIKTEFLVQLDGATTSSEDRILVVGATNRPQEIDEAARRRLVKRLYIPLPEASARKQIVINLMSKEQCCLSEEEIEQIVQQSDAFSGADMTQLCREASLGPIRSLQTADIATITPDQVRPIAYIDFENAFRTVRPSVSPKDLELYENWNKTFGCGK [FIGNL1]
solubility change mitosis (log2) [1]: -0.219
melting temperature ([2]; cell cycle stage: mitosis): 48.6 °C
solubility in G1/S (log2) [3]: -0.0197

MLPGLRRLLQAPASACLLLMLLALPLAAPSCPMLCTCYSSPPTVSCQANNFSSVPLSLPPSTQRLFLQNNLIRTLRPGTFGSNLLTLWLFSNNLSTIYPGTFRHLQALEELDLGDNRHLRSLEPDTFQGLERLQSLHLYRCQLSSLPGNIFRGLVSLQYLYLQENSLLHLQDDLFADLANLSHLFLHGNRLRLLTEHVFRGLGSLDRLLLHGNRLQGVHRAAFRGLSRLTILYLFNNSLASLPGEALADLPSLEFLRLNANPWACDCRARPLWAWFQRARVSSSDVTCATPPERQGRDLRALREADFQACPPAAPTRPGSRARGNSSSNHLYGVAEAGAPPADPSTLYRDLPAEDSRGRQGGDAPTEDDYWGGYGGEDQRGEQMCPGAACQAPPDSRGPALSAGLPSPLLCLLLLVPHHL [RTN4RL2]
solubility change mitosis (log2) [1]: -0.00838
melting temperature ([2]; cell cycle stage: G1/S): 54 °C
melting temperature ([2]; cell cycle stage: mitosis): 53.7 °C
solubility in G1/S (log2) [3]: 0.0566

GTF2H1
solubility change mitosis (log2) [1]: 0.114
melting temperature ([2]; cell cycle stage: G1/S): 50.2 °C
melting temperature ([2]; cell cycle stage: mitosis): 49.1 °C
solubility in G1/S (log2) [3]: -0.0948

UBE2D3
solubility change mitosis (log2) [1]: 0.0226
melting temperature ([2]; cell cycle stage: G1/S): 49.5 °C
solubility in G1/S (log2) [3]: 0.585

MAAAATMAAAARELVLRAGTSDMEEEEGPLAGGPGLQEPLQLGELDITSDEFILDEVDVHIQANLEDELVKEALKTGVDLRHYSKQVELELQQIEQKSIRDYIQESENIASLHNQITACDAVLERMEQMLGAFQSDLSSISSEIRTLQEQSGAMNIRLRNRQAVRGKLGELVDGLVVPSALVTAILEAPVTEPRFLEQLQELDAKAAAVREQEARGTAACADVRGVLDRLRVKAVTKIREFILQKIYSFRKPMTNYQIPQTALLKYRFFYQFLLGNERATAKEIRDEYVETLSKIYLSYYRSYLGRLMKVQYEEVAEKDDLMGVEDTAKKGFFSKPSLRSRNTIFTLGTRGSVISPTELEAPILVPHTAQRGEQRYPFEALFRSQHYALLDNSCREYLFICEFFVVSGPAAHDLFHAVMGRTLSMTLKHLDSYLADCYDAIAVFLCIHIVLRFRNIAAKRDVPALDRYWEQVLALLWPRFELILEMNVQSVRSTDPQRLGGLDTRPHYITRRYAEFSSALVSINQTIPNERTMQLLGQLQVEVENFVLRVAAEFSSRKEQLVFLINNYDMMLGVLMERAADDSKEVESFQQLLNARTQEFIEELLSPPFGGLVAFVKEAEALIERGQAERLRGEEARVTQLIRGFGSSWKSSVESLSQDVMRSFTNFRNGTSIIQGALTQLIQLYHRFHRVLSQPQLRALPARAELINIHHLMVELKKHKPNF [VPS52]
solubility change mitosis (log2) [1]: -0.138
melting temperature ([2]; cell cycle stage: G1/S): 51.5 °C
melting temperature ([2]; cell cycle stage: mitosis): 50.4 °C
solubility in G1/S (log2) [3]: -0.194
